Experimental findings from the supplement of paper PMC9112550, “Optimization of the antimicrobial peptide Bac7 by deep mutational scanning” (BMC Biology, 2022) are described below.

The test system of the series is Escherichia coli TOP10. Kind of series: shrunken log2 fold change of peptide-encoding DNA abundance (4.5 h post-induction vs induction); higher = less antimicrobial activity (less host growth inhibition). To be noted: time post-induction: 4.5 h; library: site-saturation at positions 5, 18, 19, 20.
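Further: peptides expressed intracellularly from a pBAD plasmid library in pooled LB shake-flask culture, induced with 0.3% L-arabinose, DNA abundance read by NGS, three biological replicates, DESeq2 with apeglm shrinkage.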

Turning to RRIRNRPPRLPRPRPRPNKFPRP, the “shrunken log2 fold change” value was -0.597.
The same measure for RRIRCRPPRLPRPRPRPASPPRP: 0.117; for RRIRLRPPRLPRPRPRPLKGPRP: -0.0279.
As for RRIRMRPPRLPRPRPRPTNWPRP, the “shrunken log2 fold change” value worked out at 0.474.
For the sequence RRIRLRPPRLPRPRPRPGWQPRP, the “shrunken log2 fold change” value came to 0.175.
RRIRNRPPRLPRPRPRPGKLPRP: the “shrunken log2 fold change” value was -0.0284.
With RRIRHRPPRLPRPRPRPPMMPRP, the “shrunken log2 fold change” value is 0.03.
The same measure for RRIRLRPPRLPRPRPRPAQIPRP: 0.214; for RRIRARPPRLPRPRPRPLPVPRP: 0.174; for RRIRARPPRLPRPRPRPRSRPRP: 0.757.
Next, RRIRTRPPRLPRPRPRPVWCPRP: -0.113.
Next, RRIRWRPPRLPRPRPRPAHPPRP: 0.304; RRIRHRPPRLPRPRPRPCIQPRP: -0.00018.
RRIRTRPPRLPRPRPRPLSHPRP: the “shrunken log2 fold change” value is -0.833.
On to RRIRHRPPRLPRPRPRPNYRPRP, for which the “shrunken log2 fold change” value is -0.103.
Next, RRIRCRPPRLPRPRPRPQVAPRP: 0.0924; RRIRDRPPRLPRPRPRPYLHPRP: -0.119; RRIRKRPPRLPRPRPRPMSDPRP: 0.364.
The same measure for RRIRARPPRLPRPRPRPYCKPRP: -0.376; for RRIRGRPPRLPRPRPRPYLPPRP: -0.204; for RRIRDRPPRLPRPRPRPPPHPRP: 0.623.
With RRIRQRPPRLPRPRPRPKKIPRP, the “shrunken log2 fold change” value was -0.0759.
Next, RRIRQRPPRLPRPRPRPNMRPRP: 0.121; RRIRNRPPRLPRPRPRPRQCPRP: 0.0196.
For RRIRGRPPRLPRPRPRPNMYPRP, the “shrunken log2 fold change” value was -0.185.
The same measure for RRIRARPPRLPRPRPRPRWHPRP: 0.323; for RRIRYRPPRLPRPRPRPRLQPRP: 0.196.
Next, RRIRSRPPRLPRPRPRPMTEPRP: 0.0273.
Turning to RRIRFRPPRLPRPRPRPWKFPRP, the “shrunken log2 fold change” value was 0.0664.
Consider RRIRGRPPRLPRPRPRPGLRPRP, for which the “shrunken log2 fold change” value is 0.875.
Take RRIRYRPPRLPRPRPRPPAQPRP: the “shrunken log2 fold change” value is 0.23.
Regarding RRIRKRPPRLPRPRPRPEWCPRP, the “shrunken log2 fold change” value is 0.278.
The same measure for RRIRKRPPRLPRPRPRPSNWPRP: -0.00865; for RRIRIRPPRLPRPRPRPNWHPRP: -0.227.
With RRIRFRPPRLPRPRPRPLENPRP, the “shrunken log2 fold change” value is -0.0435.
Next, RRIRTRPPRLPRPRPRPWCNPRP: -0.0437; RRIRYRPPRLPRPRPRPGFLPRP: -0.454; RRIRWRPPRLPRPRPRPPFDPRP: 0.445.
The same measure for RRIRRRPPRLPRPRPRPNGGPRP: 0.171; for RRIRYRPPRLPRPRPRPEFWPRP: -0.0503; for RRIRYRPPRLPRPRPRPFCYPRP: -0.432.
Next, RRIRDRPPRLPRPRPRPDADPRP: 0.0193.
Take RRIRSRPPRLPRPRPRPVQWPRP: the “shrunken log2 fold change” value is 0.175.
Consider RRIRIRPPRLPRPRPRPYCIPRP, for which the “shrunken log2 fold change” value is -0.224.
RRIRTRPPRLPRPRPRPDWHPRP: the “shrunken log2 fold change” value was -0.053.
Regarding RRIRTRPPRLPRPRPRPRAIPRP, the “shrunken log2 fold change” value was found to be 0.196.
Turning to RRIRFRPPRLPRPRPRPNHWPRP, the “shrunken log2 fold change” value is -0.131.
RRIRLRPPRLPRPRPRPNPSPRP: the “shrunken log2 fold change” value stood at 0.104.
The same measure for RRIRMRPPRLPRPRPRPHKWPRP: 0.216; for RRIRIRPPRLPRPRPRPCVLPRP: -0.145.
Next, RRIRVRPPRLPRPRPRPDWLPRP: -0.0563.
The same measure for RRIRQRPPRLPRPRPRPAQRPRP: 0.302; for RRIRDRPPRLPRPRPRPSEIPRP: -0.167; for RRIRVRPPRLPRPRPRPVEIPRP: -0.0612.
Regarding RRIRDRPPRLPRPRPRPLIPPRP, the “shrunken log2 fold change” value is -0.516.
The same measure for RRIRQRPPRLPRPRPRPNRGPRP: -0.0689; for RRIRERPPRLPRPRPRPHKCPRP: 0.0924.
The same measure for RRIRKRPPRLPRPRPRPDSEPRP: -0.0164.
Next, RRIRERPPRLPRPRPRPTGGPRP: 0.342; RRIRMRPPRLPRPRPRPTMWPRP: 0.274.
For RRIRNRPPRLPRPRPRPGRGPRP, the “shrunken log2 fold change” value was 0.918.
Turning to RRIRERPPRLPRPRPRPWFHPRP, the “shrunken log2 fold change” value was -0.421.
In the case of RRIRPRPPRLPRPRPRPMSLPRP, the “shrunken log2 fold change” value was -0.769.
The same measure for RRIRERPPRLPRPRPRPCWNPRP: -0.107.
Take RRIRKRPPRLPRPRPRPRAKPRP: the “shrunken log2 fold change” value turned out to be 0.173.
The same measure for RRIRRRPPRLPRPRPRPFQCPRP: -0.00197; for RRIRDRPPRLPRPRPRPMFDPRP: 0.894.
Next, RRIRKRPPRLPRPRPRPHMVPRP: -0.33.
Next, RRIRKRPPRLPRPRPRPSILPRP: -0.11; RRIRWRPPRLPRPRPRPTKMPRP: 0.344.
As for RRIRARPPRLPRPRPRPWHAPRP, the “shrunken log2 fold change” value stood at 0.288.
For the sequence RRIRDRPPRLPRPRPRPQEIPRP, the “shrunken log2 fold change” value is -0.00905.
In the case of RRIRNRPPRLPRPRPRPPHNPRP, the “shrunken log2 fold change” value turned out to be 0.216.
Next, RRIRSRPPRLPRPRPRPFLSPRP: -0.063.
Regarding RRIRERPPRLPRPRPRPEMWPRP, the “shrunken log2 fold change” value amounted to 0.452.
The same measure for RRIRTRPPRLPRPRPRPGEPPRP: -0.026.
Turning to RRIRGRPPRLPRPRPRPQYAPRP, the “shrunken log2 fold change” value turned out to be 0.285.
Next, RRIRRRPPRLPRPRPRPHEDPRP: 0.0653; RRIRSRPPRLPRPRPRPRVIPRP: 0.017.
The same measure for RRIRGRPPRLPRPRPRPQVTPRP: 0.0826; for RRIRHRPPRLPRPRPRPLMIPRP: -0.498.
The same measure for RRIRYRPPRLPRPRPRPYIHPRP: -1.31; for RRIRSRPPRLPRPRPRPGATPRP: 0.584.
As for RRIRCRPPRLPRPRPRPYHTPRP, the “shrunken log2 fold change” value is -0.887.
The same measure for RRIRWRPPRLPRPRPRPLVVPRP: 0.173; for RRIRHRPPRLPRPRPRPMFEPRP: -0.239; for RRIRKRPPRLPRPRPRPTYQPRP: -0.191.
Regarding RRIRTRPPRLPRPRPRPDEHPRP, the “shrunken log2 fold change” value was -0.0955.
RRIRERPPRLPRPRPRPEVAPRP: the “shrunken log2 fold change” value is 0.907.
Take RRIRCRPPRLPRPRPRPCHNPRP: the “shrunken log2 fold change” value was -0.734.
Take RRIRGRPPRLPRPRPRPNFEPRP: the “shrunken log2 fold change” value was determined as 1.87.
Take RRIRWRPPRLPRPRPRPPATPRP: the “shrunken log2 fold change” value amounted to 1.06.
As to RRIRDRPPRLPRPRPRPMWPPRP, the “shrunken log2 fold change” value stood at 0.316.
Next, RRIRVRPPRLPRPRPRPCIAPRP: -0.298; RRIRQRPPRLPRPRPRPQNLPRP: -0.0271; RRIRTRPPRLPRPRPRPSQAPRP: 0.0983.
For the sequence RRIRQRPPRLPRPRPRPAYGPRP, the “shrunken log2 fold change” value was -0.341.
The same measure for RRIRWRPPRLPRPRPRPDHDPRP: 0.0812.
The same measure for RRIRGRPPRLPRPRPRPESYPRP: 0.0402; for RRIRLRPPRLPRPRPRPHDFPRP: -0.205.
As for RRIRFRPPRLPRPRPRPIDRPRP, the “shrunken log2 fold change” value was -0.0144.
Next, RRIRGRPPRLPRPRPRPKQQPRP: 0.228; RRIRSRPPRLPRPRPRPSYTPRP: -0.437; RRIRYRPPRLPRPRPRPSWGPRP: -0.154.
Next, RRIRVRPPRLPRPRPRPDIVPRP: -0.229; RRIRKRPPRLPRPRPRPVGFPRP: 0.485.
Next, RRIRQRPPRLPRPRPRPTGEPRP: 0.0647.
Turning to RRIRCRPPRLPRPRPRPHKIPRP, the “shrunken log2 fold change” value was -0.217.
Take RRIRGRPPRLPRPRPRPCIGPRP: the “shrunken log2 fold change” value is -0.143.
In the case of RRIRSRPPRLPRPRPRPEYLPRP, the “shrunken log2 fold change” value was -0.0519.
The same measure for RRIRKRPPRLPRPRPRPNKAPRP: 0.0692; for RRIRNRPPRLPRPRPRPELKPRP: 0.00533.
Turning to RRIRSRPPRLPRPRPRPCRGPRP, the “shrunken log2 fold change” value is -0.128.
Turning to RRIRGRPPRLPRPRPRPVQIPRP, the “shrunken log2 fold change” value was found to be 0.335.
As to RRIRYRPPRLPRPRPRPVPHPRP, the “shrunken log2 fold change” value was -0.262.
Turning to RRIRERPPRLPRPRPRPWCHPRP, the “shrunken log2 fold change” value was -0.229.
Next, RRIRDRPPRLPRPRPRPRLAPRP: 0.686; RRIRNRPPRLPRPRPRPHHNPRP: -0.869.
Next, RRIRRRPPRLPRPRPRPNWRPRP: 0.415.
For the sequence RRIRQRPPRLPRPRPRPKTVPRP, the “shrunken log2 fold change” value is -0.093.
Next, RRIRTRPPRLPRPRPRPDQSPRP: -0.0809; RRIRHRPPRLPRPRPRPLYFPRP: -0.816.
RRIRGRPPRLPRPRPRPYWSPRP: the “shrunken log2 fold change” value was -0.251.
With RRIRSRPPRLPRPRPRPQRHPRP, the “shrunken log2 fold change” value came out at 0.141.
Next, RRIRGRPPRLPRPRPRPCRGPRP: -0.0404.
